± gives the uncertainty stated by the source.
assay: amyloid nucleation score (Sup35N fusion, yeast selection) (log enrichment); library NNK1; higher = more nucleation; inactive = no reads after selection
How it was run: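 The nucleation score is a DiMSum log enrichment of output over input reads, centred on the mode score of non-aggregating sequences. Sequences under 100 input reads were excluded, and reads came from Illumina sequencing of plasmid inserts. Psi-negative yeast expressing Sup35N fused to peptides of 20 random codons were induced with 100 μM copper sulfate for 24 hours and grown 7 days at 30°C on medium lacking adenine and uracil. Random libraries had three technical output replicates.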

Row | Substance | amyloid nucleation score
1 | KSFSIYTVIVV | 1.2 ± 0.26
2 | VAFMDLTMRLDWGNFSNR | 4.34 ± 0.056
3 | INETLYRTFSRL | -0.471 ± 0.56
4 | GDIALS | -0.292 ± 0.41
5 | WRFEYWFRGIHYCIYNYFC | -0.011 ± 0.89
6 | VPALQQIPYCMI | 0.524 ± 0.57
7 | FSCKSAPQFCRWG | 0.718 ± 0.42
8 | SLYDLTDTAICFAFFYFD | 7.95 ± 0.082
9 | YVFSLVSESLQIIYHPLLLL | -0.189 ± 0.41
10 | VCSKGACSLGDVNCDSTDVG | 0.104 ± 0.63
11 | RRRCYVVSCCLVALACLACF | 0.412 ± 0.8
12 | PSRWRYYGSYGDLILICSGS | -0.907 ± 0.79
13 | LFGSEVTWYLTSGCDKPFLH | 0.087 ± 0.48
14 | ASKFYHFRTQEYTS | 0.212 ± 0.28
15 | VSSHSMGFIVSVVMTCEYRS | 1.23 ± 0.7
16 | SYILCHWTFGDKGRFPQNYR | 2.3 ± 0.18
17 | NLPLLFL | -0.069 ± 0.27
18 | NLSSSRSVVKNLTFQMWNTS | 4.45 ± 0.063
19 | STMFYLIFCQCTSIYANLYQ | 0.063 ± 0.41
20 | EKLKMVVGWVVPLSAHMQEY | 0.609 ± 0.84
21 | NECDVALIRWWG | 0.419 ± 0.45
22 | SGDIKSFWMERCFCLVTHGK | -0.115 ± 0.57
23 | IMWLLLPRYDLFFRLMYTAS | 0.617 ± 0.46
24 | LPVHGMFWSVR | -0.157 ± 0.78
25 | VFNCWCLTEFFVMYGIVCQK | 4.52 ± 0.1
26 | YSISFSYHGVVCGSGSNRGV | -0.589 ± 0.63

Row | Substance | amyloid nucleation score
27 | MCVILVELYQRGSWYTRKVM | -0.206 ± 1.1
28 | GMVSIII | 0.276 ± 0.51
29 | RMVLPVSNLFCAFPGTGGGS | -0.577 ± 0.32
30 | CGAYRMWQYKASRGTHWPYT | -0.182 ± 0.6
31 | ERPTNSYGSREILNSYIINF | 5.05 ± 0.084
32 | WVNCLFIYWFCFDALPIIVE | -0.616 ± 0.4
33 | CIISGMLWLAMKRTMGIELW | 2.88 ± 0.18
34 | IYASSLTDGFTVVWCLNQY | 5.05 ± 0.07
35 | IFLNKRSTSAWFSMLLLFLS | 1.4 ± 0.14
36 | VGCKP | -0.24 ± 0.75
37 | VRSPDSLVVWDLVRH | -0.367 ± 0.49
38 | IEIKTIFVSFLFCECKFCGY | 5.63 ± 0.057
39 | YEFTYLWNNKVLLGLCCYGG | 4 ± 0.13
40 | HVGQAVSSCDSNLE | -0.365 ± 0.59
41 | CDERNNAFLGVFGSS | -0.288 ± 0.47
42 | PYVGHVGVKRDSNCK | 0.206 ± 1.1
43 | NIASGFGFPYRGVLSC | 0.184 ± 1
44 | WCNRHHDWVVLLAIVAGGEV | 0.873 ± 0.64
45 | WDLLLWSVNRDRRV | 1.47 ± 0.55
46 | VVTRDQLYQ | -0.817 ± 1.7
47 | EVSLLSFLE | 0.68 ± 0.39
48 | VFESWKFELRVWIVVTFLHG | 0.21 ± 0.52
49 | YWNMTCNTV | -0.139 ± 0.52
50 | LSRTSKSPFGGEFLERHIYI | -0.42 ± 1
51 | CLETACRILGFCN | -0.488 ± 0.21
52 | VSWWNCLL | -1.28 ± 2.4

Row | Substance | amyloid nucleation score
53 | KSMHEVWWLLQSEGERDL | 0.712 ± 0.49
54 | HRQLWC | -1.96 ± 2.1
55 | NLGLDVCEYIVVTWLTNDWS | -0.258 ± 0.51
56 | WYAGFTGRFRSLFFIISIFG | -0.529 ± 1
57 | SWSSGGNFARFIQYVPATHA | 0.117 ± 0.72
58 | AVMMHDTVGVHW | -0.609 ± 0.6
59 | PGRTLIVFFCVVVCQCEDNR | 1.44 ± 0.5
60 | AGRRKSRSAVQREP | 0.528 ± 0.88
61 | AGHSCQSTMTGCYTFHSYVW | -0.102 ± 0.49
62 | VGLINHYSSSNMLG | 0.161 ± 0.62
63 | LNIGTW | 0.185 ± 0.28
64 | WELMLTTH | 0.453 ± 0.33
65 | VNSSPFFMYKGVHFTWTYYS | 4.51 ± 0.1
66 | YMSVWFVTVSMDCVGRNSRT | 4.19 ± 0.058
67 | LNISMFHSNSSHTTEEVTHH | 1.32 ± 0.19
68 | VMKLAVRR | -0.114 ± 0.91
69 | VLVKQGVMA | 0.868 ± 0.78
70 | VSSNYMRNML | 0.169 ± 0.34
71 | LSRTKGKAQCLGQVGRMRVL | 0.294 ± 0.54
72 | CHTTKNYVYCVCMQFVTHQ | 6.725 ± 0.045
73 | TVTWASGFMGGVDHCSWGQV | 0.043 ± 0.65
74 | IGKSCFIFVTG | 0.56 ± 0.43
75 | MCVGRDISGEWSYYQCMVEL | 0.495 ± 0.28
76 | SGYWAPINLTGVMDS | 0.053 ± 1.1
77 | CRLKH | 0.123 ± 0.3
78 | YTINPRKIRGTPPPIPCRVQ | 0.16 ± 0.73

Row | Substance | amyloid nucleation score
79 | CKSRR | 0.034 ± 0.69
80 | WDWHIGRKWV | -0.629 ± 0.62
81 | LRSSEYWSLMEVDLVMDSLP | 0.629 ± 0.97
82 | NLPSSKKVLPCFFLRSIYGC | 0.9 ± 0.4
83 | KWDLRPYFFLMVLEQGCSMW | -0.506 ± 1
84 | VWWHYLSLYAIWYSYVRLYV | -0.097 ± 0.52
85 | IHLIDLTRVSAG | 0.627 ± 0.63
86 | AYVRGCLFILPFRPTQV | 1.42 ± 0.14
87 | KVAVN | 0.453 ± 0.42
88 | VCKGSHWFIYLRNGFKSPSV | 1.46 ± 0.65
89 | DLAFRPVLVLQ | 0.762 ± 0.65
90 | CKDCYLITGVVINYPSRPLW | 5.985 ± 0.049
91 | FTRGDICLYLFCELFRPVNC | 2.29 ± 0.22
92 | NSFVYQWFGYVSFKLFRCTV | 0.316 ± 0.26
93 | KSQTRDIFRGDVMC | -0.991 ± 0.71
94 | SSLPRPPMPKWSDV | 0.125 ± 0.88
95 | QPLLTQQK | 0.086 ± 0.28
96 | YIMILYRKGMFILRVFSLLL | -0.293 ± 0.24
97 | AKMRMNNSFFFTVNWVLMNW | -0.461 ± 0.4
98 | LFSCWQSGRVNKYYVDGSMG | -0.206 ± 0.97
99 | RMSSIKYVMWGHFAIVSTKV | 1.99 ± 0.43
100 | EPCVGNSNSCCVHC | -0.072 ± 0.53
101 | FLRELMRCIGASSTFLGVEK | -0.204 ± 0.29
102 | TFYCYLSLGSHEKKADFSNN | 2.21 ± 0.15
103 | LMSASNLNAVSKQCIRLRRC | 1.48 ± 0.55
104 | VVMQACNLNMCFMNGCRRGC | 7.304 ± 0.045

Row | Substance | amyloid nucleation score
105 | LYVDH | inactive
106 | GVGDTNCSEL | 0.178 ± 0.33
107 | SDLWLLECWTLDICGWLKAT | 0.992 ± 0.58
108 | VRSNGYHVMFNTINRVWDTV | 0.672 ± 0.44
109 | VIVWGSRSFLGC | 3.49 ± 0.1
110 | CSCGLSYGLYFE | 0.786 ± 0.92
111 | SYGLWHMAM | -0.232 ± 0.54
112 | DAWGTVRYSIGFKGVVAMTS | 0.149 ± 0.29
113 | YVSVVCLFVPDKFRNVTDL | 6.87 ± 0.073
114 | QFRGLDLCLRIRRLVAYTGI | 0.285 ± 0.64
115 | KFLLNRVLTDMDLYT | 0.135 ± 0.37
116 | ESLSCKFLCVYCCL | inactive
117 | RIIGHLKFIMIRNNVSLCDM | -0.146 ± 0.5
118 | LEASSIISSRTPG | -0.93 ± 2.4
119 | VMLAGSDWLNGFRAESFCGI | -1.35 ± 2.1
120 | SNMLHWSVRMGHGWW | 0.184 ± 1
121 | DKRNVASYDSMCQLLAILFN | 0.512 ± 0.34
122 | MYFVRVSSDA | 0.351 ± 0.54
123 | AKVRKNYTFLHLSPLGRGFD | 0.321 ± 0.48
124 | MMPVRWHMFDAWDLWIDLER | -0.456 ± 0.88
125 | NPLMTTLATSDMWRNQFISG | 1.38 ± 0.41
126 | NFTSRYEANFTVFSFRAWRL | 0.297 ± 0.36
127 | PGKICSNDQVNVSAY | -0.179 ± 0.49
128 | FNFNFRRFYHVRGFDSRSHL | 0.473 ± 0.58
129 | ENHAKLHDICGASGLSREGG | 0.592 ± 0.49

— the supplement of paper PMC12042874
